According to paper PMC13016609, “UV irradiation alters TFAM binding specificity and compaction of DNA”:

Columns and labels:
Conditions in all cases: protein: recombinant; label: 5' 6-FAM on strand 1; blunt
TFAM (no MTS) [1] = target: T1, TFAM (no MTS) (Homo sapiens, UniProt Q00059 43-246); test: fluorescence anisotropy; Hill n 2.46±0.23; FP: 25 mM HEPES, 10 mM Mg(OAc)2, 25 mM NaOAc, 75 mM KOAc, pH 7.5, 1 nM DNA, TFAM 0-15 nM diluted on ice (read temperature not stated); AFM oligos: on ice, 2 min
T1 sequence: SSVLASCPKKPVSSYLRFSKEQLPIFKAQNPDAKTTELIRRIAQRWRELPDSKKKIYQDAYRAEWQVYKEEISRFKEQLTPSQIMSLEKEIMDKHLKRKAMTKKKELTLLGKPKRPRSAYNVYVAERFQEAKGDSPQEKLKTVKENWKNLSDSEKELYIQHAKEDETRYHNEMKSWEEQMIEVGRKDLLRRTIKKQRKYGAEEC

TFAM (no MTS) [2] = target: T1, TFAM (no MTS); test: fluorescence anisotropy; +UVC; Hill n 2.33±0.10; FP: 25 mM HEPES, 10 mM Mg(OAc)2, 25 mM NaOAc, 75 mM KOAc, pH 7.5, 1 nM DNA, TFAM 0-15 nM diluted on ice (read temperature not stated); AFM oligos: on ice, 2 min
TFAM (no MTS) [3] = target: T1, TFAM (no MTS); test: fluorescence anisotropy; +UVC; Hill n 2.19±0.06; FP: 25 mM HEPES, 10 mM Mg(OAc)2, 25 mM NaOAc, 75 mM KOAc, pH 7.5, 1 nM DNA, TFAM 0-15 nM diluted on ice (read temperature not stated); AFM oligos: on ice, 2 min
TFAM (no MTS) [4] = target: T1, TFAM (no MTS); test: fluorescence anisotropy; Hill n 2.07±0.07; FP: 25 mM HEPES, 10 mM Mg(OAc)2, 25 mM NaOAc, 75 mM KOAc, pH 7.5, 1 nM DNA, TFAM 0-15 nM diluted on ice (read temperature not stated); AFM oligos: on ice, 2 min
TFAM (no MTS) [5] = target: T1, TFAM (no MTS); test: fluorescence anisotropy; +UVC; Hill n 2.12±0.28; FP: 25 mM HEPES, 10 mM Mg(OAc)2, 25 mM NaOAc, 75 mM KOAc, pH 7.5, 1 nM DNA, TFAM 0-15 nM diluted on ice (read temperature not stated); AFM oligos: on ice, 2 min

B1: RNR2_619 (dsDNA)
DNA 1: ATTGATCCAATAACTTGACCAACGGAACAAGTT
DNA 2: AACTTGTTCCGTTGGTCAAGTTATTGGATCAAT
Q: Which Kd (TFAM (no MTS) [1]) does the source give for B1 here?
A: 4.89 ± 0.33 nM

B2: RNR2_619 +UVC (dsDNA)
DNA 1: B1 DNA 1
DNA 2: B1 DNA 2
modifications: UVC 1500 J/m2 photolesions (positions undefined)
Q: B2 was tested. Which Kd (TFAM (no MTS) [2]) did it give?
A: 8.13 ± 0.39 nM

B3: ND3_92 +UVC (dsDNA)
DNA 1: TTAGTAGCTATTACCTTCTTATTATTTGATCTA
DNA 2: TAGATCAAATAATAAGAAGGTAATAGCTACTAA
modifications: UVC 1500 J/m2 photolesions (positions undefined)
Q: With B3 as the binder, how does the Kd (TFAM (no MTS) [3]) read?
A: 5.54 ± 0.14 nM

B4: COX1_27 (dsDNA)
DNA 1: AAGACATTGGAACACTATACCTATTATTCGGCG
DNA 2: CGCCGAATAATAGGTATAGTGTTCCAATGTCTT
Q: With B4 as the binder, how does the Kd (TFAM (no MTS) [4]) read?
A: 6.09 ± 0.43 nM

B5: COX1_27 +UVC (dsDNA)
DNA 1: B4 DNA 1
DNA 2: B4 DNA 2
modifications: UVC 1500 J/m2 photolesions (positions undefined)
Q: B5 was tested. Which Kd (TFAM (no MTS) [5]) did it give?
A: 5.9 ± 0.1 nM
